The source of these data is paper PMC5296750.

The target in assay [1] is Pyrococcus abyssi minichromosome maintenance protein (PabMCM), full-length, devoid of inteins (Pyrococcus abyssi). Briefly: SEC; Superose 6 10/300 GL, 20 mM HEPES pH 7.4, 150 mM NaCl, 0.3 ml/min; apparent molecular weight estimated against gel-filtration standards.
Assay [2] has the same target. Briefly: cryo-EM, reference-free 2D classification; Quantifoil grids with thin carbon, plunge-frozen; ~33,000 particles, Relion 2D classification without imposed symmetry.
For assay [3] the target is unchanged. Briefly: negative-stain electron microscopy with single particle analysis; 1% uranyl acetate, FEI F20 FEG, 50,000x, MSA classification (IMAGIC-5), 3D reconstruction with EMAN2; map at 22 Å.

Several values for one entry are separate records, joined by “and”; a condition that tells them apart may be missing. Equal entries are not always repeated.

The term stoichiometry N denotes a count of units in the complex or per binding partner.

On to “Pyrococcus abyssi minichromosome maintenance protein (PabMCM), full-length, devoid of inteins (enzyme)”, for which the stoichiometry N in assay [1] is 8; in assay [2], 8; in assay [3], 8 and 7.
